Data taken from patent US20140005241 (The Curators of the University of Missouri, published 2014).

Target: SARS-CoV nsp13 helicase (SARS coronavirus, UniProt P0C6X7 P0C6X7:5302-5902)
Test: EMSA
Details: tags: GST (baculovirus) or His6; label: 5'-Cy3; 20 nt 5' overhang, 40 bp duplex

B1: 60/40-mer (20ss:40ds) DNA (dsDNA)
DNA 1: TAGATAGCATTAGATAGCCACAGATAGCATCCTAGATAGCATTGGTGCTCGAACAGTGAC
DNA 2: GTCACTGTTCGAGCACCAATGCTATCTAGGATGCTATCTG
binding result: binds
